In experiment [1] the target is Complement C1q (UniProt P02745).
For experiment [2] the target is unchanged. Description: flow cytometry on cholesterol crystals; C1q (50 μg/ml in PBS, 1 h RT) bound to cholesterol crystals (1.6 mg/ml), washed; vWF 10 μg/ml in PBS added for 1 h at RT, washed; vWF detected with polyclonal rabbit anti-vWF and anti-rabbit IgG-AF647; BD Accuri 6; n = 5. (In general: In flow cytometry, cells or beads pass a laser one at a time.)
The target is the same in experiment [3]. The source holds these as a separate data set.

This is an account of results in publication PMC6881245.

UniProt P02745, sequence (P02745 23-245, chain 1 of 3): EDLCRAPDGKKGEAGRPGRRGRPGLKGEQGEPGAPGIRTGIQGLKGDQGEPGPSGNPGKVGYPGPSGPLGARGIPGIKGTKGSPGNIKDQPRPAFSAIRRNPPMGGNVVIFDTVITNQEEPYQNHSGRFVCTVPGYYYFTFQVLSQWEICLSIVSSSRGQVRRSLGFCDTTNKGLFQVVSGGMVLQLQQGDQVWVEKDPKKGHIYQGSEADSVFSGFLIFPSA
UniProt P02745, sequence (P02746 28-253, chain 2 of 3, further chain): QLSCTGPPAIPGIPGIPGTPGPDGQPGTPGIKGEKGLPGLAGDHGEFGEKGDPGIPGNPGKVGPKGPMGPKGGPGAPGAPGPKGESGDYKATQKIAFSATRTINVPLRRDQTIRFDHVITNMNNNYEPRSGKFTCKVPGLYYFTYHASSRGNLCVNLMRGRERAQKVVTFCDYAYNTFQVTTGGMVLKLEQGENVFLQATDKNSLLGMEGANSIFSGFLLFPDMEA
UniProt P02745, sequence (P02747 29-245, chain 3 of 3, further chain): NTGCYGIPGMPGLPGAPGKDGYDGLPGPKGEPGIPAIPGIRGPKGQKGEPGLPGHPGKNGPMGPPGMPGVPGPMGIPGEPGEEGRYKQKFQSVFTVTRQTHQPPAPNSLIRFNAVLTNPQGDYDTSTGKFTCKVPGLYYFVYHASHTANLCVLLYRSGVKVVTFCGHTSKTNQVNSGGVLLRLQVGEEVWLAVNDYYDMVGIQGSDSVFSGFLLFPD

In the case of “von Willebrand factor (from UniProt P04275 764-2813) (natural protein)”, in experiment [1], the early phagocytosis (30 min) of pHrodo-dyed CC-C1q-vWF complexes by HMDMs, percent of CD11c+ cells in the pHrodo Red Ester+ gate; CC-C1q without vWF: 62, 40% (49.05–68.78%) is 54.5% and the late phagocytosis (18 h) of CC-C1q-vWF complexes by HMDMs, percent of CD11c+ cells in the SSC^high gate; CC-C1q without vWF: 24.05% (22.55–34.60%) was found to be 13.7%. The substance also gave a median gMFI of vWF staining on CC-C1q in experiment [2] of 115000 gMFI. Further, the caspase-1 activity of HMDMs after 18 h with CC-C1q-vWF complexes, percent of CD11c+ cells in the FLICA+ gate; CC-C1q without vWF: 11.54% (7.29–28.38%) in experiment [3] was 9.37%.
